# US20190382474A1 (SURFACE ONCOLOGY, published 2019)
# Numbering of substitutions follows the chain as printed.
# B1: SRF536 (antibody, V domains shown)
# VH: QVQLQQWGAGLLKPSETLSLTCAVYGGSFSEYYWAWIRQPPGKGLEWIGEIDEVGSTNYNPSLKSRVTISVDTSKNQFSLKLSSVTAADTAVYYCARLPMYYYDSSDLPMDVWGQGTTVTVSS
# VL: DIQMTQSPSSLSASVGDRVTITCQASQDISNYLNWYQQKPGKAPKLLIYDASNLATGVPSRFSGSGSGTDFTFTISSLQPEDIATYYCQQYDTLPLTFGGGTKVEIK
# notes: also called SRF536-A; SRF536-B
# B2: SRF382 (antibody, V domains shown)
# VH: EVQLVESGGGLVKPGGSLRLSCAASGFTFSRTGMNWVRQAPGKGLEWVSSISSSSSYIYYADSVKGRFTISRDNAKNSLYLQMNSLRAEDTAVYYCARDGGRTSYTATAHNWFDPWGQGTLVTVSS
# VL: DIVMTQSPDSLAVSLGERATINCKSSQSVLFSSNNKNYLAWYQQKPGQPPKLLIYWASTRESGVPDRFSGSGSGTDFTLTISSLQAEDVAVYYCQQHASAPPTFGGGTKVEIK
# notes: also called SRF382-A; SRF382-B
# B3: SRF384 (antibody, V domains shown)
# VH: B2 VH with T32Y, S56A, Y59L
# VL: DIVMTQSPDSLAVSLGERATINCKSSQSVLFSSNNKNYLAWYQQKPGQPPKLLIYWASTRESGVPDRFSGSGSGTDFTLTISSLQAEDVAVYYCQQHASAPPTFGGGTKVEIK
# notes: also called SRF384-A; SRF384-B
# B4: SRF529 (antibody, V domains shown)
# VH: B2 VH with R31S, T32Y, G33S
# VL: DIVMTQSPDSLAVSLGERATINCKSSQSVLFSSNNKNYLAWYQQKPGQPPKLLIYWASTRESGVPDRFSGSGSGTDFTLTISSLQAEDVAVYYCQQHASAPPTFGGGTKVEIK
# notes: also called SRF529-A; SRF529-B
# B5: SRF386 (antibody, V domains shown)
# VH: B2 VH with S30A, R31S, T32Y
# VL: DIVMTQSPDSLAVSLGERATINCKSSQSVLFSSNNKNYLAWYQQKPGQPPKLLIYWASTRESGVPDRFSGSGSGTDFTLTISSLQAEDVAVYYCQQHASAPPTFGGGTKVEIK
# notes: also called SRF386-A; SRF386-B
# B6: Ab7 (antibody)
# heavy: EVKLVESGGGLVQPGGSLKLFCAASGFTFTSYSMSWVRQTPEKRLEWVAYISYDGGSAYYPDTVKGRFSISRDNAKKTLYLQMSSLKSEDTAMYYCARHGDYDDDDAMDYWGQGTSVTVSSAKTTAPSVYPLAPVCGDTTGSSVTLGCLVKGYFPEPVTLTWNSGSLSSGVHTFPAVLQSDLYTLSSSVTVTSSTWPSQSITCNVAHPASSTKVDKKIEPRGPTIKPCPPCKCPAPNLLGGPSVFIFPPKIKDVLMISLSPIVTCVVVDVSEDDPDVQISWFVNNVEVHTAQTQTHREDYNSTLRVVSALPIQHQDWMSGKEFKCKVNNKDLPAPIERTISKPKGSVRAPQVYVLPPPEEEMTKKQVTLTCMVTDFMPEDIYVEWTNNGKTELNYKNTEPVLDSDGSYFMYSKLRVEKKNWVERNSYSCSVVHEGLHNHHTTKSFSRTPGK
# light: DIQMTQSPASLSASVGETVTITCRASENIYSYLAWYQQKQGKSPQLLVYNAETLTEGVPSRFSGSGSGTQFSLKINSLQPEDFGNYYCQHHYGTPLTFGAGTKLDLKADAAPTVSIFPPSSEQLTSGGASVVCFLNNFYPKDINVKWKIDGSERQNGVLNSWTDQDSKDSTYSMSSTLTLTKDEYERHNSYTCEATHKTSTSPIVKSFNRNEC
# notes: mouse hybridoma antibody (mIgG2a/kappa); also called isolated anti-EBI3 antibody Ab7; parental Ab7 antibody
# B7: SRF543 (antibody, V domains shown)
# VH: QVQLQQWGAGLLKPSETLSLTCAVYGGSFSDYEWSWIRQPPGKGLEWIGEIDWSGITNYNPSLKSRVTISVDTSKNQFSLKLSSVTAADTAVYYCARLPMYYYDSSVSTGSVDVWGQGTMVTVSS
# VL: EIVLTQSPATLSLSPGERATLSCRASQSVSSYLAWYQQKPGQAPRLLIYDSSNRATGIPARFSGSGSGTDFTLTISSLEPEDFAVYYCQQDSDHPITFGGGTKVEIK
# notes: also called SRF543-A; SRF543-B
# B8: Ab7.13 (antibody, human IgG1, kappa, V domains shown)
# VH: EVKLVESGGGLVQPGGSLRLSCAASGFTFTSYSMSWVRQAPGKGLEWVAYISYDGGSAYYPDTVKGRFTISRDNSKKTLYLQMNSLRAEDTAVYYCARHGDYDDDDAMDYWGQGTLVTVSS
# VL: DIQMTQSPSSLSASVGDRVTITCRASENIYSYLAWYQQKPGKAPKLLVYNAETLTEGVPSRFSGSGSGTDFTLTISSLQPEDFANYYCQHHYGTPLTFGQGTKLEIKR
# notes: human IgG1/kappa
# B9: Ab7.21 (antibody, human IgG1, kappa, V domains shown)
# VH: B8 VH with K3Q, A49S, K77N
# VL: B8 VL
# notes: human IgG1/kappa
# B10: Ab7.22 (antibody, human IgG1, kappa, V domains shown)
# VH: B8 VH with K3Q, A49S, K77N
# VL: B8 VL with N85T
# notes: human IgG1/kappa
# B11: Ab7.20 (antibody, human IgG1, kappa, V domains shown)
# VH: B8 VH with K3Q, A49S, K77N
# VL: B8 VL with P40Q, E105D
# notes: human IgG1/kappa
# B12: Ab7.18 (antibody, human IgG1, kappa, V domains shown)
# VH: B8 VH with K3Q, K77N
# VL: B8 VL with N85T
# notes: human IgG1/kappa
# B13: Ab7.16 (antibody, human IgG1, kappa, V domains shown)
# VH: B8 VH with K3Q, K77N
# VL: B8 VL with P40Q, E105D
# notes: human IgG1/kappa
# B14: Ab7.14 (antibody, human IgG1, kappa, V domains shown)
# VH: B8 VH
# VL: B8 VL with N85T
# notes: human IgG1/kappa
# B15: SRF416 (antibody, V domains shown)
# VH: QVQLQQWGAGLLKPSETLSLTCAVYGGSFSGYYWSWIRQPPGKGLEWIGEIDVDGSTNYNPSLKSRVTISVDTSKNQFSLKLSSVTAADTAVYYCARDGYYYDTSPYDVWGQGTMVTVSS
# VL: EIVLTQSPATLSLSPGERATLSCRASQSVSSYLAWYQQKPGQAPRLLIYDASNRATGIPARFSGSGSGTDFTLTISSLEPEDFAVYYCQQRDSFPLTFGGGTKVEIK
# notes: also called SRF416-A; SRF416-B
# B16: SRF557 (antibody, V domains shown)
# VH: QVQLVQSGAEVKKPGSSVKVSCKASGGTFSSYAISWVRQAPGQGLEWMGGIIPIFGTANYAQKFQGRVTITADESTSTAYMELSSLRSEDTAVYYCARLGGRGYADEGWYFDLWGRGTLVTVSS
# VL: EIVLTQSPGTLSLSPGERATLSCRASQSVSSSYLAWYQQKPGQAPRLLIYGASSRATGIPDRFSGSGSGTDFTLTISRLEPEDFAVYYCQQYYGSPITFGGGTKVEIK
# notes: also called SRF557-A; SRF557-B
# Biological target: T1, recombinant human IL-27 (human, UniProt Q14213 21-229; Q8NEV9 29-243)
# T1 construct: Bought from R&D Systems (Cat. 2526-IL); also called hIL-27; rhIL-27
# T1 sequence 1: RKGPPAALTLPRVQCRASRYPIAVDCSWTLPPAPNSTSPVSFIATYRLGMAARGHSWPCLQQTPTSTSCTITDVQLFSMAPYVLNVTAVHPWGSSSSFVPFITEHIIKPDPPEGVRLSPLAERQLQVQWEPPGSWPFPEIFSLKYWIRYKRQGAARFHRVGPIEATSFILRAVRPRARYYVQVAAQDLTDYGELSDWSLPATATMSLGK
# T1 sequence 2: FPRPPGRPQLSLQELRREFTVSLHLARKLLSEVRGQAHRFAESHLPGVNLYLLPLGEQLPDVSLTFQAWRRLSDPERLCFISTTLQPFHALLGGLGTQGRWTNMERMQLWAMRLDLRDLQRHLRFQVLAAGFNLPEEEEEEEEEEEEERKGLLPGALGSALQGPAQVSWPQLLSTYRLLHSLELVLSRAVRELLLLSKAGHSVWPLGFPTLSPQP
# Test: column 'Affinity hIL-27 (M)', property (i); method not given, paragraph 885 names SPR (BIACORE 2000)
row,Binder,Kd [nM]
1,B1,0.048
2,B2,0.0075
3,B3,0.0024
4,B4,0.0059
5,B5,0.0034
6,B6,1
7,B7,0.026

# Biological target: T1, recombinant human IL-27
# Test: SPR (BIACORE 2000) as the paragraph says; values in FIG. 9
row,Binder,Kd [nM]
1,B2,≤ 15
2,B3,≤ 15
3,B5,≤ 15

# Biological target: T1, recombinant human IL-27
# Test: SPR, hIL-27 on CM5 chip, bivalent analyte model (ka1)
# Experimental: (§1) The antibodies were further characterized by surface plasmon resonance (SPR). Kinetic experiments were performed on a Biacore T200 (GE Healthcare, Uppsala, Sweden). All experiments were run at 25° C. with HBS-P+ running buffer (pH 7.4) (GE Healthcare, Little Chalfont, UK) using hIL-27 (R&D Systems, Abingdon, UK). Human IL-27 (hIL-27) antigen was captured on a CM5 chip to ˜16 RU. Immobilization was carried out at a protein concentration of 1 μg/mL in 10 mM acetate buffer pH 5.0. A three point, three-fold dilution range from 3.3 nM to 30 nM of antibody diluted in HBS-P+ buffer without regeneration between each concentration was used. The association phase for the three injections of increasing concentrations of antibody was monitored for 75 seconds each time and a single dissociation phase was measured for 250 seconds following the last injection of antibody. Regeneration of the hIL-27 surface was conducted using a single injection of 2M MgCl₂ for 120 s. Multiple repeats (n=4) of the chimeric antibody were performed throughout the assay to check the stability of the surface and analyte over the kinetic cycles.
# (§2) Both 1:1 binding and bivalent analyte models were used to analyze the data due to the bivalent nature of the antibody. The results from the 1:1 binding model analysis are summarized in Table 4 and results from the bivalent analyte model are summarized in Table 5.
row,Binder,kon [M⁻¹ s⁻¹]
1,B8,740000
2,B9,550000
3,B10,580000
4,B11,620000
5,B12,570000
6,B13,570000
7,B14,700000

# Biological target: T1, recombinant human IL-27
# Test: SPR, hIL-27 on CM5 chip, bivalent analyte model (kd1)
# Experimental: as §1, §2
row,Binder,koff [s⁻¹]
1,B8,0.0026
2,B9,0.0027
3,B10,0.0027
4,B11,0.0025
5,B12,0.0028
6,B13,0.0027
7,B14,0.0026

# Biological target: T1, recombinant human IL-27
# Test: SPR, hIL-27 on CM5 chip, bivalent analyte model
# Experimental: as §1, §2
Binder,ka2,kd2 [s⁻¹]
B8,0.02 1/RUs,0.053
B9,0.043 1/RUs,0.097
B10,0.49 1/RUs,1.11
B11,0.036 1/RUs,0.086
B12,0.053 1/RUs,0.11
B13,0.04 1/RUs,0.091
B14,0.039 1/RUs,0.099

# Biological target: T1, recombinant human IL-27
# Test: SPR (Biacore T200), hIL-27 on CM5 chip, single cycle, 1:1 model
# Experimental: as §1, §2
Binder,Kd [nM],Relative KD to Ab7.1,koff [s⁻¹],kon [M⁻¹ s⁻¹]
B8,1.2,1.2,0.0018,1.5e+06
B9,1.5,1.5,0.0019,1.2e+06
B10,1.5,1.5,0.0019,1.3e+06
B11,1.4,1.4,0.0018,1.3e+06
B12,1.5,1.4,0.0019,1.3e+06
B13,1.5,1.4,0.0018,1.3e+06
B14,1.2,1.2,0.0018,1.5e+06

# Biological target: T2, recombinant mouse IL-27 (mouse, UniProt O35228 19-228; Q8K3I6 29-234, limits assumed)
# T2 construct: also called rodent recombinant IL-27
# T2 sequence (looked up) 1: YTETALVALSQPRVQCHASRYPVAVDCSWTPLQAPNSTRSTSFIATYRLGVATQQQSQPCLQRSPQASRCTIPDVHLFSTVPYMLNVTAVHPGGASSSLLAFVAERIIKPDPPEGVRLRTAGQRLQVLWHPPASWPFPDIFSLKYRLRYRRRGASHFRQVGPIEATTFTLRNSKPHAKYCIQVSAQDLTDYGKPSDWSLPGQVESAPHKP
# T2 sequence (looked up) 2: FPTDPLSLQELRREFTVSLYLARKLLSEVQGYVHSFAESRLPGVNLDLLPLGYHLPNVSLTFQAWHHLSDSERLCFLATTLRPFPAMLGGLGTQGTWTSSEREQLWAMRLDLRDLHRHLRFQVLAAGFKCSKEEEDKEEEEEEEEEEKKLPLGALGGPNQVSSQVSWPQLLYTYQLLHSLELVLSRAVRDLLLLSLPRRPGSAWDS
# Test: column 'Affinity mIL-27 (M)'; method not given
Binder,Kd [nM],binding result
B1,80.5,
B2,2.5,
B3,0.405,
B4,1.33,
B5,1.75,
B15,,no binding
B6,,no binding
B16,,no binding
B7,62.1,
